The target in the test is HDM-2 in the cancer cell membrane (human, UniProt Q00987 1-491). As to the kind of experiment: cell-based or functional assay.

The values below come from US20210205403A1 (RESEARCH FOUNDATION FOR THE STATE UNIVERSITY OF NEW YORK, published 2021).

Chain of HDM-2 in the cancer cell membrane (Q00987 whole entry): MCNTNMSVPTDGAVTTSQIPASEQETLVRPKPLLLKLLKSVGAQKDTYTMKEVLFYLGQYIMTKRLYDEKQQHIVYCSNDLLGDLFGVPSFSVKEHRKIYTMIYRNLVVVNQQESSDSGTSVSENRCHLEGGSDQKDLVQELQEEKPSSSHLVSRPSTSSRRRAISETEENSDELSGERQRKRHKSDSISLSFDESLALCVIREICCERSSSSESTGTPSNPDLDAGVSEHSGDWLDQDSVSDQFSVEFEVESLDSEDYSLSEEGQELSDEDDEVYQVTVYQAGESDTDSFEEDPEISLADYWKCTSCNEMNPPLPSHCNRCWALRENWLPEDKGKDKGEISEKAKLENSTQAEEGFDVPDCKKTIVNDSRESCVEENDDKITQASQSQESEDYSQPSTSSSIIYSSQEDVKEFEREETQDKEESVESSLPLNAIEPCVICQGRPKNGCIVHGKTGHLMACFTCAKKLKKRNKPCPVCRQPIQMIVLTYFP

Take PPLSQETFSDLWKLLKKWKMRRNQFWVKVQRG [PNC-27 (p53 aa12-26-MRP)]: the “IC50 (dose of PNC-27 on cancer cells)” value was found to be 125 µg/mL.
